Test results as given in US20250304666A1 (ALCHEMAB THERAPEUTICS, published 2025).

T1: reduced CFH (Homo sapiens (Human), UniProt P08603 860-1231, limits assumed)
T1 construct: also called CFH (reduced)
T1 sequence: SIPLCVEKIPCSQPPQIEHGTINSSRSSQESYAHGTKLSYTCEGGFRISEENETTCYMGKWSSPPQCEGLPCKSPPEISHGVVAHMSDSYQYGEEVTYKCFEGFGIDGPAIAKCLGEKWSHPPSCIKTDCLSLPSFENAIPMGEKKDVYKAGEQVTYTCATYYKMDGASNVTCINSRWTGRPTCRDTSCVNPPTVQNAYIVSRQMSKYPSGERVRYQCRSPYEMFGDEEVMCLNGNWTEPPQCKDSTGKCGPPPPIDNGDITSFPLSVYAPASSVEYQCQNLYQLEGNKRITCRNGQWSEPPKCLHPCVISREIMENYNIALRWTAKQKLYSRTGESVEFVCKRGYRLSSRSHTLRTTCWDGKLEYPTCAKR

T2: non-reduced CFH
T2 construct: also called CFH (NON-REDUCED)
T2 chain: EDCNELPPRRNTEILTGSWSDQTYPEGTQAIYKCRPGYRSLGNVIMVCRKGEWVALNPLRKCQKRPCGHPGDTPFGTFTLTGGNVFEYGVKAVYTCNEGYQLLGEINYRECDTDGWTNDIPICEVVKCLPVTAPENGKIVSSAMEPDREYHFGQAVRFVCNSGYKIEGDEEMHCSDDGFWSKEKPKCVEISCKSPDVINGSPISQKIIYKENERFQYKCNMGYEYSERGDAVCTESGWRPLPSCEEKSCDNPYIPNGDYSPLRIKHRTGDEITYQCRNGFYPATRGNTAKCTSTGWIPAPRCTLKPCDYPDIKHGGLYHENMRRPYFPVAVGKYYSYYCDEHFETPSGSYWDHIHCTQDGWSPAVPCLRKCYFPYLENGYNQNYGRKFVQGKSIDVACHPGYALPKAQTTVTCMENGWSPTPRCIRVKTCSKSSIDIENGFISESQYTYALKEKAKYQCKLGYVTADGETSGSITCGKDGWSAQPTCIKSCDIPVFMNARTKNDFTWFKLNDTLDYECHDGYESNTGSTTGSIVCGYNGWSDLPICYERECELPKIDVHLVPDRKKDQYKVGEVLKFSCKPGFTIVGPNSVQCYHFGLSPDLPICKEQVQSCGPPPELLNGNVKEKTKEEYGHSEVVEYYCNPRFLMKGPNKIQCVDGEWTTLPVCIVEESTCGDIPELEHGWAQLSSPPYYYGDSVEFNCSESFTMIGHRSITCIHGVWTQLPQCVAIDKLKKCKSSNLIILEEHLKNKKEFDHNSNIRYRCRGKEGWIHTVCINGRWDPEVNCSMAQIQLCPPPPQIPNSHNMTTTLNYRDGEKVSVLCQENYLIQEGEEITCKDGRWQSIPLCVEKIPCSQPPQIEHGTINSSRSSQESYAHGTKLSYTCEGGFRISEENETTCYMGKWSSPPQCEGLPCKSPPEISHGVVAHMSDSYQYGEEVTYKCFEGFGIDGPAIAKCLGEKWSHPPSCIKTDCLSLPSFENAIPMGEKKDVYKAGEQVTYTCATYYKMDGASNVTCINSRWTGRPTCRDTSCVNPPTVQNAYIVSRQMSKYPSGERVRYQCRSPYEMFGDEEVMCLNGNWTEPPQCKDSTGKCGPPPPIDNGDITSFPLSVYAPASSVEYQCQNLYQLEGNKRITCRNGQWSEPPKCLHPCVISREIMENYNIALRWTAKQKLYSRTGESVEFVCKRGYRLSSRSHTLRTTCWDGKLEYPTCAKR

T3: reduced CFHR3 (UniProt Q02985 19-330, limits assumed)
T3 sequence (looked up): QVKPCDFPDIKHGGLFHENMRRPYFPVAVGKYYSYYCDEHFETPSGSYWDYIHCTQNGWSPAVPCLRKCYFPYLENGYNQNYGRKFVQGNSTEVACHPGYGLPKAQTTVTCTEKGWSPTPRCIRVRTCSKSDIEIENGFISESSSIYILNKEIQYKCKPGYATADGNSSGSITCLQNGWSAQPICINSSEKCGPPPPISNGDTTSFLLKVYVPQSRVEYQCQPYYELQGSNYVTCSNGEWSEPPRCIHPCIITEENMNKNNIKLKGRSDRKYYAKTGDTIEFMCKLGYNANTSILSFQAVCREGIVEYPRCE


What was measured:
[1] = molecular target: T1, reduced CFH; experiment: direct ELISA on reduced CFH
[2] = molecular target: T2, non-reduced CFH; experiment: direct ELISA on non-reduced CFH
[3] = molecular target: T3, reduced CFHR3; experiment: ELISA on reduced CFHR3
[4] = molecular target: T4, immobilised biotinylated full-length CFH (reduced) (Homo sapiens (Human), UniProt P08603 19-1231, biotinylated; reduced with 20 mM dithiothreitol); experiment: BLI, biotinylated reduced full-length CFH on streptavidin tips, 1:1 global fit
T4 construct: Purified endogenous full-length CFH immobilised by biotin on streptavidin BLI sensors; also called immobilised CFH; surface immobilised CFH
Procedure: Biolayer interferometry (BLI, Octet 96Red) was used to measure binding kinetics of the interactions between anti-CFH antibodies and CFH. The CFH used for kinetics measurements was purified endogenous CFH was biotinylated and reduced with 20 mM dithiothreitol (DTT). An irrelevant protein was treated in the same way as a negative control reference. The CFH or irrelevant control ligands were each immobilised via the conjugated biotin onto a set of streptavidin (SA) sensor tips. Sensors were dipped into reference kinetics buffer (Phosphate buffered saline (PBS), pH 7.4, 0.05% Tween-20, 2% w/v not fat milk powder) to achieve a steady baseline. Association was measured over 300 s by dipping the sensors into an analyte concentration series of anti-CFH antibody (33.3-2.08 nM in kinetics buffer) as well as a no analyte control (kinetics buffer only). Dissociation was measured over 1500 s by dipping the sensors into kinetics buffer only. Baseline, association and dissociation steps were all measured with sensors shaking at 800 rpm and at a temperature of 23° C. Data was analysed with Data Analysis HT 11.1.0.25 software. Data from reference sensors and analyte control were subtracted. Data was corrected by aligning y-axis to average of baseline 5 s before association, inter step correction aligned to start of baseline and using Savitzky-Golay filtering. Data was fit to a 1:1 model using association and dissociation phases and kinetic rate constants are reported for the global fit where each curve R2 is >0.9.

EC50 (read off the curve) [1]	EC50 (read off the curve) [2]	binding result [3]	Kd [4]	koff [4]	kon [4]	Binder
~0.1 nM	~0.2 nM					ATL4717 (antibody, human IgG1, kappa, V domains shown, Human IgG1; also called ATL0004717; ATL04717) VH: QVQLVESGGGMVQPGRSLRLSCAASGFTFSIYGMHWVRQAPGRGLEWVAVMSFDGKTKYYADSVKGRFTISRDNSKNTLYLQMNSLRRVDTAVYYCAKGGATAAVFDSWGQGTLVTVSS VL: not shown
		no binding (tested: 100 ug/ml)	0.85 nM	0.000348 s⁻¹	409000 M⁻¹ s⁻¹	ATL5170 (antibody, human IgG1, kappa, V domains shown, IgG1; also called ATL_0005170) VH: QVQLVESGGGVVQPGRSLRLSCAASGFTFSNYGMHWVRQAPGKGLEWVAVTSFDGKTKYYADSVKGRFTISRDNSKNTLYLQMNSLRAEDTAVYYCAKGGATAAVLDSWGQGTLVTVSS VL: not shown
